# Assay results: patent US8785391B2, “Compound and method for treatment of alzheimer's disease and familial dementia” (Alphabeta AB, priority 2010, dated 2014)
# What was measured:
# recombinant Bri2(90-236) = target: T1, recombinant Bri2(90-236) (Homo sapiens, UniProt Q9Y287); assay: ESI-MS binding of peptides to recombinant Bri2(90-236) (substrate specificity); conditions: 20 μM Bri2(90-236); for complex formation of peptide with recombinant Bri2(90-236): 50 μM peptide (peptide/protein ratio 2.5)
# T1 construct: His6 (N, cleaved yes); thioredoxin (N, cleaved yes); made in house; host or cells: E. coli Origami(DE3)pLysS, pET-32c vector
# T1 sequence (Q9Y287 90-236): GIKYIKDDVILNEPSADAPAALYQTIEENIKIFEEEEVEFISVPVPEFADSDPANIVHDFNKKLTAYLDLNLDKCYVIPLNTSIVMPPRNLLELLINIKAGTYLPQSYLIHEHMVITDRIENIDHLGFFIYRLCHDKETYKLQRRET
# Description: Prior to electrospray ionization mass spectrometry (ESI-MS), purified Bri2(90-236) (SEQ ID NO: 2) was rebuffered into 10 mM ammonium acetate, pH 7.0, using spin columns with a 3 kDa cut-off limit (Nanosep, Pall Corp., East Hills, N.Y., USA). Protein and peptides were mixed at 22° C. directly before analysis at a final protein concentration of 20 μM and a final peptide concentration of 50 μM. Data was acquired using a QTOF Ultima API mass spectrometer (Waters, Milford, Mass., USA) equipped with a Z-spray source operated in the positive-ion mode. Samples were introduced via nano-electrospray using metal-plated borosilicate glass capillary needles (Proxeon, Denmark). The source temperature was 80° C., the capillary voltage 1.7 kV, and the cone and RF lens 1 potentials were 100 and 38 V, respectively. The mass spectrometer was operated in single-reflector mode at a resolution of 10 000 (full width half maximum definition), and the mass scale was calibrated using myoglobin. Scans were acquired at a rate of 1 scan per 2 sec between 500 and 4000 m/z. The collision gas was argon at 5.2×10^−5 mbar. Mass spectra were smoothed using the Waters MassLynx software.
# All peptides, with the exception of KFFEYNGKKFFE (SEQ ID NO: 15), ABri23 (SEQ ID NO: 4) and Aβ1-40 (SEQ ID NO: 11), were purchased from Thermo Electron (Darmstadt, Germany). KFFEYNGKKFFE was purchased from Interactiva (Ulm, Germany) and Aβ1-40 and disulfide-linked ABri23 were from Bachem (Bubendorf, Switzerland).
# Peptides, except for KFFEYNGKKFFE, ABri23 and Aβ1-40, were acetylated at the N-terminus and amidated at the C-terminus. The compositions of all peptides were verified by ESI-MS and amino acid analysis. Peptide YYY was dissolved to a final concentration of 10 mM in 30% acetonitrile. VVV, FFF and LLL were dissolved in 50% isopropanol to a final concentration of 10 mM. KKK, GGG and AAA were dissolved in water to a final concentration of 10 mM, while KFFEYNGKKFFE and ABri23 were dissolved in water to final concentrations of 5.6 mM and 1 mM, respectively. All peptide samples were stored at −20° C., except for Aβ1-40 which was dissolved to a final concentration of 1 mM in water directly prior to analysis.
# To further investigate the substrate specificity of Bri2(90-236), homotripeptides with aromatic (YYY, FFF), hydrophobic (VVV, LLL), charged (KKK) or small uncharged (AAA, GGG) side-chains, were employed to study binding, under maintained water solubility. […] The peptide sequences are denoted in each spectrum. Symbols * and ** indicate peaks corresponding to recombinant Bri2(90-236) with one or two peptide ligands, respectively. […] Bri2(90-236) also binds the peptide KFFEYNGKKFFE (FIG. 6).
# Aβ1-40 = target: T2, Aβ1-40 (Homo sapiens, UniProt P05067); format: biochemical; conditions: 0.1 and 1 molar equivalents to Aβ1-40; compared to the same amounts of Bri2(90-236); data not shown
# T2 construct: made in house; host or cells: E. coli
# Source text: (§1) Aβ1-40 (SEQ ID NO: 11) and Aβ1-42 (SEQ ID NO: 12) were expressed in E. coli from synthetic genes and purified in batch format using ion exchange and size exclusion steps as described in Walsh et al., FEBS J. 2009, 276, 1266-1281, which results in highly pure monomeric peptide. Purified peptide was divided into 20-30 identical aliquots and frozen. Monomer was then isolated by gel filtration of an aliquot of purified peptide just prior to setting up each of the experiments listed below to remove traces of aggregate formed during freezing and thawing and to exchange buffer to the one used in the respective experiment. Monomer was collected in low-bind Ep-tubes ([…]) on ice, and the concentration was determined by absorbance or amino acid analysis after acid hydrolysis. The monomer was used as is or diluted to the desired concentration for the respective experiment. Bri2(90-236) (SEQ ID NO: 2) was expressed and purified as described in Example 1. Aggregation kinetics were studied by recording the Thioflavin T (ThT) fluorescence intensity as a function of time in a plate reader (FluoStar Omega from BMG Labtech, Offenberg, Germany). The fluorescence was recorded using bottom optics in half-area 96-well PEG-coated black polystyrene plates with clear bottom (Corning 3881) using 440 nm excitation filter and 480 nm emission filter. Aβ monomer was isolated by gel filtration as above in 20 mM Na-phosphate, 200 μM EDTA, 0.02% NaN3 (at pH 7.4 in the case of Aβ1-40 and at pH 8.0 for Aβ1-42) and diluted to 6 or 8 μM in the case of Aβ1-40 and 3 μM in the case of Aβ1-42 in the same buffer and supplemented with 20 μM ThT from a 2 mM stock. To each well in the 96-well plate was first added either 10 μl buffer (20 mM Tris/HCl pH 7.4) or 10 μl of Bri2(90-236) protein or control protein at ten times the desired final concentration in 20 mM Tris/HCl pH 7.4. To each well was then added 90 μl of the ice-cold Aβ monomer solution, and the plate was immediately placed in the plate reader at 37° C., with fluorescence read every 6 minutes with continuous shaking at 100 rpm between readings. Aβ1-40 was studied alone or with Bri2(90-236) at a concentration ranging from 60 nM to 6 μM. Aβ1-42 was studied alone or with Bri2(90-236) at a concentration ranging from 20 nM to 6 μM.
# Aβ1-42 = target: T3, Aβ1-42 (Homo sapiens, UniProt P05067); assay: ThT aggregation kinetics of Aβ1-42 (Example 4); format: biochemical; conditions: 0.1 and 1 molar equivalents to Aβ1-42; compared to the same amounts of Bri2(90-236); data not shown
# T3 construct: made in house; host or cells: E. coli
# Source text: as §1, with “Aβ1-40 was studied alone or with Bri2(90-236) at a concentration ranging from 60 nM to 6 μM. Aβ1-42 was studied alone or with Bri2(90-236) at a concentration ranging from 20 nM to 6 μM.” left out
# T2 sequence (P05067 672-711): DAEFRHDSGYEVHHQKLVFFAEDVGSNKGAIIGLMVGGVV
# T3 sequence (P05067 672-713): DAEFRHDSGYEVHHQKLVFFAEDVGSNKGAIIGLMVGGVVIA
Substance,complex formation of peptide with recombinant Bri2(90-236) (recombinant Bri2(90-236)),further results
AAA: homotripeptide with small uncharged side-chains,No interactions were observed,–
FFF: homotripeptide with aromatic side-chains (Ac-Phe-Phe-Phe-NH2),No interactions were observed,–
GGG: homotripeptide with small uncharged side-chains (Ac-Gly-Gly-Gly-NH2),No interactions were observed,–
KFFEYNGKKFFE,found to form complexes,–
KKK: homotripeptide with charged side-chains (Ac-Lys-Lys-Lys-NH2),No interactions were observed,–
LLL: homotripeptide with hydrophobic side-chains (Ac-Leu-Leu-Leu-NH2),No interactions were observed,–
VVV: homotripeptide with hydrophobic side-chains (Ac-Val-Val-Val-NH2),No interactions were observed,–
YYY: homotripeptide with aromatic side-chains (Ac-Tyr-Tyr-Tyr-NH2),found to form complexes,number of peptide molecules per Bri2(90-236) in complexes (recombinant Bri2(90-236); 50 μM peptide): one or two
cystatin [reference compound],–,effects of control protein on Aβ1-40 aggregation (ThT assay) (Aβ1-40): small; effects of control protein on Aβ1-42 aggregation (ThT assay) (Aβ1-42): small
